Assay results as given in PMC10293748.

Target: SARS-CoV-2 RBDWT, His-tagged, soluble (SARS-CoV-2) (UniProt P0DTC2)
Test: ELISA

Substance: soluble ACE2 (sACE2), commercially available, His-tagged (domain or fragment)
- IC50: 179 nM
